From PMC9716232

biological target: complement component 3b (C3b) (human) (UniProt P01024); test: SPR; equilibrium: each FH sample injected at 0.0156-2 uM, in duplicate, over 1500 RUs of C3b amine-coupled on a Biacore CM5 sensor chip; fit to a 1:1 equilibrium model (Biacore software)

Substance | Kd
FH variant Arg53His (from UniProt P08603 19-1231) (natural protein) | 3.16 µM
FH variant Arg175Pro (from UniProt P08603 19-1231) (natural protein) | 6.39 µM
FH variant Arg567Gly (from UniProt P08603 19-1231) (natural protein) | 4.21 µM

These reach a lower Kd. Values come first.

Kd | Substance
1.95 µM | FH variant Arg1210Cys (from UniProt P08603 19-1231) (natural protein)
1.7 µM | control factor H (FH) (from UniProt P08603 19-1231) (natural protein)
